For orientation: IC50 means the concentration needed to halve the response being measured.

Assay [1] deals with T1, membrane-bound B Lymphocyte Stimulator on P388 plasma membranes (mouse, UniProt Q9WU72 1-309).
T1 construct: whole, on cells
The assay is described as follows: phage competition ELISA. (In general: ELISA stands for enzyme-linked immunosorbent assay.)

The target in another assay is T2, TNF-alpha (human, UniProt P01375 77-233).
T2 construct: also called TNFα; Tumour Necrosis Factor-alpha
T2 sequence (P01375 77-233 limits assumed): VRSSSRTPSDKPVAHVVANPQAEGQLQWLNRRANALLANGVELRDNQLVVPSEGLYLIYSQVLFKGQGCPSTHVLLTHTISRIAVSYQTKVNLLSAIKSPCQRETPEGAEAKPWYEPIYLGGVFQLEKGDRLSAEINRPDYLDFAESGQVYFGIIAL
The assay is described as follows: phage ELISA.

Assay [2] deals with T3, biotinylated B Lymphocyte Stimulator (human, soluble form) (human, UniProt Q9Y275 134-285, NHS-biotin labelled at a molar ratio of 20:1 biotin:B Lymphocyte Stimulator).
T3 construct: also called bio-B Lymphocyte Stimulator
Nature of the assay: purified scFv; inhibition of biotinylated BLyS binding to IM9 cells.

The target of assay [3] is T4, B Lymphocyte Stimulator, human, soluble form (human, UniProt Q9Y275 134-285).
T4 construct: also called BLyS; immobilized B Lymphocyte Stimulator
The assay is described as follows: phage ELISA.

For assay [4], the target named is T5, biotinylated B Lymphocyte Stimulator (soluble form) (human, UniProt Q9Y275 134-285, biotinylated with NHS-biotin (20:1 biotin:protein)).
T5 construct: The biotinylation protocol covers human or mouse protein; also called bio-B Lymphocyte Stimulator; free B Lymphocyte Stimulator
The assay is described as follows: phage scFv, IM9 receptor binding inhibition. The procedure:
Plates were washed three times in PBST and three times in PBS, tapped dry and 50 μl of streptavidin-Delfia (Wallac) was added to each well at 1:1000 dilution in the Manufacturer's assay buffer. The plates were then incubated at room temperature for 1 hour and washed six times in Delfia wash solution (Wallac). After tapping the plates dry, 100 μl per well of Delfia enhancement solution (Wallac) was added. The plates were gently tapped to encourage micelle formation, incubated at room temperature for 10 minutes, and fluorescence read on a Wallac 1420 workstation at […].
All of the unique phage scFvs from panel 2 were assessed for their ability to inhibit B Lymphocyte Stimulator binding to its cognate receptor on IM9 cells. The biotinylation of B Lymphocyte Stimulator, maintenance of IM9 cells and receptor binding inhibition assay were performed as described in Example 3.

T1 sequence (Q9WU72 whole entry): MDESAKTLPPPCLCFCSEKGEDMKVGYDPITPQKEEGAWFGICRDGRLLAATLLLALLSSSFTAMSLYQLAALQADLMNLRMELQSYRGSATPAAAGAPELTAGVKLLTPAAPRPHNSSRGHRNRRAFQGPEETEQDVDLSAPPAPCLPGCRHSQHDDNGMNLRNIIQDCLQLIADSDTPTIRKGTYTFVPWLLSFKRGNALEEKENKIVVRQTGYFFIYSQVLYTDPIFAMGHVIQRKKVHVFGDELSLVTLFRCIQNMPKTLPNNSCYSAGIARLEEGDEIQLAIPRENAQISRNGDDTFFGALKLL

B1: I079F08 (scFv)
scFv: QMQLVQSGGGVVQPGRSLRLSCAASGFTFSSYGMHWVRQAPGKGLEWVAVISYDGSIKYYADSVKGRFTISRDNSKNTLYLQMNSLRAEDTAVYYCARYYYHSSGSDAFDIWGQGTLVTVPSGGGGSGGGGSGGGGSQSVLTQPPSASGTPGQRVTISCSGSSSNIGSNTVNWYQRLPGAAPQLLIYNNNQRPSGVPDRFSGSKSGTSASLAISGLQSEDEADYYCAAWDDSLNGWVFGGGTKLTVLG
With B1, the binding result in assay [1] is listed as “binds”.

B2: I018D07 (scFv)
scFv: GVQLVQSGPEVKKPGASVIVSCTASGYTFTSYGVSWVRQAPGQGLEWIGWISAHNGQTKYAEKFQGRVTMTRNTSISTAYMELSSLRSEDTAVYYCARDGSYDILTGYYIDNYMDVWGKGTMVTVSSGGGGSGGGGSGGGGSSELTQDPAVSVALGQTVRITCQGDSLRSYYTNWFQQKPGQAPLLVVYAKNKRPSGIPDRFSGSSSGNTASLTITGAQAEDEADYYCHSRDSSGNHVLFGGGTKLTVLG
As for B2, the binding result with TNF-alpha is on record as “no binding”.

B3: I068C06 (scFv)
scFv: EVQLVQSGAEVKKPGSSVKVSCKASGGTVSSRTISWVRQAPGQGLEWMGGSLPPSGAPIYAQKFQGRVAITADALTNTAFMELRSLKSDDTAVYYCARDQGRYLDLWGKGTLVTVSSGGGGSGGGGSGGGGSAQAVLTQPSSVSGAPGQRVTISCTGSRSNIGAGYDVHWYQQLPGTAPKLLIYGNSNRPSGVPDRFSGSKSGTSASLAITGLQADDEADYYCQSYDTSLRGLFGTGTKVTVLG
notes: also called I0068C06; 0068C06
B3: the 50% inhibitory concentration (IC50) in assay [2] stood at 0.062 µM.

B4: I079B04 (scFv)
scFv: EVQLVESGGGLVQPGGSLRLSCAASGFTFSDYAMSWVRQAPGKGLEWVSAISGSGGSTSYADSVKGRFTISRDNSKNTLYLQMNSLRAEDTAVYYCASLLSDYWGRGTTVTVSSGGGGSGGGGSGGGGSQSVLTQPASVSGSPGQSITISCTGTSSDVGGYNYVSWYQQHPGKAPKLMIYEGSKRPSGVSYRFSGSKSGNTASLTISGLQAEDEADYYCSSYTTRSTRVFGGGTKLTVLG
B4: in assay [1], the binding result is reported as “binds”.

B5: I080B01 (scFv)
scFv: QVQLVQSGAEVKKPGASVKVSCKASGYTFTNYYMHWVRQAPGQGLEWMGIINPRDVSTTYAQKFQGRATMTRDTSTSTVYMELNSLRSEDTAVYYCAREYSGYHYVEGGSYAMDVWGQGTMVTVSSGGGGSGGGGSGGGGSALSYVLTQPPSASGTPGQRVTITCSGSSSNIGNYYVNWYQQVSGTAPKLIIYRNNQRPSGVPDRFSGSKSGASASLAISGLRSEDEADYFCAAWDDSLREFVFGTGTKVTVLG
With B5, the binding result in assay [1] is “binds”.

B6: I026C04-K (scFv)
scFv: QVQLVQSGAEVKKPGSSVKVSCRASGGSFNKHAISWVRQAPGRGLEWMGGILPMYGTANYAQKFQGRVTITADKLTNTVYMDLSRLRYEDTAVYYCARELGLSIVGATTGALDMWGKGTLVTVSSGGGGSGGGGSGGGGSAQSVLTQPPSVSAAPGQKVTISCSGSSSNIGNNYVSWYQQIPGTAPKLLIYENNKRPSGIPDRFSGSKSGASATLDITGLQTGDEADYYCGTWHSSQVVFGGGTKLTVLG
Take B6: the binding result in assay [3] is “binds”.

B7: I026C04-K (scFv)
scFv: QVQLVQSGAEVKKPGSSVKVSCRASGGSFNKHAISWVRQAPGRGLEWMGGILPMYGTANYAQKFQGRVTITADKLTNTVYMDLSRLRYEDTAVYYCARELGLSIVGATTGALDMWGKGTLVTVSSGGGGSGGGGSGGGGSAQSVLTQPPSVSAAPGQKVTISCSGSSSNIGNNYVSWYQQIPGTAPKLLIYENNKRPSGIPDRFSGSKSGASATLDITGLQTGDEADYYCGTWHSSQVVFGGGTKLTVLG
Regarding B7, the binding result in assay [4] was “binds”.

(Values after patent US20110117093A1 (published 2011).)
